Measurements: publication doi:10.1101/2025.06.17.660082

Molecular target: Biotinylated SP16 (human) (UniProt P01009)
Assay: SPR

## Recombinant human insulin receptor/CD220 (28-944) protein, His Tag (from UniProt P06213-2 28-944)
  Kd: 185 nM
